In patent publication US20250282879A1 (CILAG GMBH INTERNATIONAL, published 2025):

T1: recombinant human IL-31 protein (Peprotech) (human, UniProt Q6EBC2 24-164)
T1 sequence (looked up): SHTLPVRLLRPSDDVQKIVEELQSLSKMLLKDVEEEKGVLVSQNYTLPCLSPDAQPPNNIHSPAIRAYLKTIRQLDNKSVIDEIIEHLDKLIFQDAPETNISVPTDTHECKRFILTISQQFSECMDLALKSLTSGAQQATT

T2: human IL-31-His (human, UniProt Q6EBC2 24-164)
T2 construct: captured via an anti-His tag antibody; also called human IL-31 (scFv SPR); not shown: His tag
T2 sequence (looked up): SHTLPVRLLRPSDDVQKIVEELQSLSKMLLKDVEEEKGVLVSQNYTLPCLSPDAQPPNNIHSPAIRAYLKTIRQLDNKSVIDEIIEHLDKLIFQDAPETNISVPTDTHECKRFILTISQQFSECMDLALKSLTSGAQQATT


Experiments:
[1] = molecular target: T1, recombinant human IL-31 protein …; assay: cell-based or functional assay
[2] = molecular target: T3, human IL-4R on cells (HEK-Blue IL-4/IL-13 cells, human PBMC, human whole blood) (human, UniProt P24394 26-825); assay: cell-based or functional assay
[3] = molecular target: T3, human IL-4R on cells (HEK-Blue …); assay: cell-based or functional assay; remark: listed apart in the source
[4] = molecular target: T4, human IL-4R on transfected HEK293T cells (human, UniProt P24394 26-825); assay: flow cytometry, transfected HEK293T cells
T4 construct: whole, on cells; also called human IL-4R-expressing HEK293T cells; not shown: V5 Tag fused to the N-terminus of the expression construct
From the text: (§1) To test binding of the Morrison-H and Morrison-L antibodies PRO2198, PRO2199, PRO2206 and PRO2207 to human or cynomolgus IL-4R-expressing HEK293T cells, HEK293T cells were transfected with human and cynomolgus IL-4R plasmids and mock plasmid using Lipofectamine3000. Binding of an antibody targeting V5 Tag, which is fused to the N-terminus of human and cynomolgus IL-4R expression constructs, would confirm successful expression of both targets and was thus used as a positive control for plasma membranous binding. The Morrison-H molecule PRO2077 was used as negative control for cynomolgus IL-4R binding since this molecule had not shown any cross-reactivity to cynomolgus IL-4R (see section 5.3.).
(§2) 50,000 transfected HEK293T cells per well were seeded in a 96-well plate. 5-fold serial dilutions of the Morrison-H and Morrison-L antibodies PRO2198, PRO2199, PRO2206 and PRO2207 and of the control molecule PRO2077, which is not cross-reactive to cynomolgus IL-4R, were added at concentrations ranging from 5,000 to 0.32 ng/ml to the plates and incubated for 60 min at 4° C. on a shaker. Supernatants were removed and detection reagent was added for flow cytometry analysis. The geometric mean of the APC fluorescence intensity of single cells was calculated.

[5] = molecular target: T5, cynomolgus IL-4R on transfected HEK293T cells (cynomolgus monkey, UniProt A0A2K5V580 33-832); assay: flow cytometry, transfected HEK293T cells
T5 construct: whole, on cells; also called cynomolgus IL-4R-expressing HEK293T cells; not shown: V5 Tag fused to the N-terminus of the expression construct
T5 sequence (A0A2K5V580 entry or part of it): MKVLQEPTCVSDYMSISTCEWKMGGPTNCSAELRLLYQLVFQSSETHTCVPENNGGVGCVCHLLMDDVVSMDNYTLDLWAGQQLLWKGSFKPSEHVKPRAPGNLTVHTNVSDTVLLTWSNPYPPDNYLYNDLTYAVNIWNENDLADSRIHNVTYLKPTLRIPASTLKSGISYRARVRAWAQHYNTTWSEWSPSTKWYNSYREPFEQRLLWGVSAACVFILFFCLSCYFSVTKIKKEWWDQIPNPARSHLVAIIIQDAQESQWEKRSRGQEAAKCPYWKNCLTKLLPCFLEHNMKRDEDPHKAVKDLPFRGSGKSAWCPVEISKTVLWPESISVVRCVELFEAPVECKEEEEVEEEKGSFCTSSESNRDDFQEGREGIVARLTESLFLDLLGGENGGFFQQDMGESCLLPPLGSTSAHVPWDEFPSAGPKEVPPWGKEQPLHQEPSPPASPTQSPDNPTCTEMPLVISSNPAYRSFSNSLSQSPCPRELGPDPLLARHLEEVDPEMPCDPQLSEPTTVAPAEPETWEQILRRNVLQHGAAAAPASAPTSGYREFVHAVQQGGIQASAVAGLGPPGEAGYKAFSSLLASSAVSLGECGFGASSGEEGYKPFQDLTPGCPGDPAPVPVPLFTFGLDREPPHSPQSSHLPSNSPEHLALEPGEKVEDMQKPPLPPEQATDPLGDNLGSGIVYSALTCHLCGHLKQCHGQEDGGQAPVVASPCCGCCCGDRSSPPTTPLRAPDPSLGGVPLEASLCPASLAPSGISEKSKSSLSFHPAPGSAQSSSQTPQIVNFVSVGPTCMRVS
From the text: as §1, §2

[6] = molecular target: T3, human IL-4R on cells (HEK-Blue …); assay: cell-based or functional assay; remark: listed apart in the source
[7] = molecular target: T1, recombinant human IL-31 protein …; assay: SPR, Morrison captured on immobilized human IL-4R-Fc, IL-31 analyte, single-cycle
Procedure: (§3) Binding kinetics (including affinity) of the bispecific Morrison-H (PRO2198, PRO2199) and Morrison-L (PRO2206, PRO2207) molecules to recombinant human IL-31 protein (Peprotech) were determined by SPR analysis on a T200 device (Biacore, Cytiva). In this SPR experiment, Morrison antibodies were injected over a carboxylmethylated dextran surface (CM5 sensorchip; Biacore, Cytiva) immobilized with human recombinant IL-4R protein (ECD with Fc Tag, R&D Systems) and a titration series of human IL-31 was injected as analyte. […] The calculation of the kinetics and the apparent dissociation equilibrium constant (KD) as well as the measurement for the quality of curve fitting were done as described above for IL-4R. The binding level was calculated as the maximum stability binding achieved normalized to the theoretical Rmax. Cross-reactivity to cynomolgus monkey IL-31 was measured using the same setup as for the analysis of human IL-31 affinities, with the difference that recombinant cynomolgus monkey IL-31 (ECD with His Tag, Sino Biological) protein was used as analytes instead of human IL-31.
(§4) After having shown a stable capture of Morrison antibodies via recombinant human IL-4R protein, IL-31 was injected as analyte and the kinetics of the binding of IL-31 to captured Morrison molecules were calculated.

[8] = molecular target: T6, recombinant cynomolgus monkey IL-31 (ECD with His Tag, Sino Biological) (cynomolgus monkey); assay: as above
T6 construct: manufactured on demand by Sino Biological; also called cynomolgus IL-31-His; cyno IL-31
Procedure: as §3, §4

[9] = molecular target: T7, recombinant human IL-4R protein (ECD with His Tag, Sino Biological) (human, UniProt P24394 26-232); assay: SPR, Morrison captured via anti-human IgG-Fc, IL-4R ECD-His analyte
T7 construct: extracellular domain; bought; also called human IL-4R ECD; not shown: His Tag
Procedure: (§5) Binding kinetics (including affinity) of the bispecific Morrison-H (PRO2198, PRO2199) and Morrison-L (PRO2206, PRO2207) molecules to recombinant human IL-4R protein (ECD with His Tag, Sino Biological) were determined by SPR analysis on a T200 device (Biacore, Cytiva). In this SPR experiment, Morrison molecules were captured via an anti-human IgG-Fc antibody (Human Antibody Capture Kit; Biacore, Cytiva) covalently immobilized to a carboxylmethylated dextran surface (CM5 sensorchip; Biacore, Cytiva) and a titration series of human IL-4R ECD was injected as analyte. After each analyte injection cycle, the sensor chip was regenerated (MgCl₂), and new Morrison antibody was subsequently re-captured. […] The apparent dissociation (kd) and association (kₐ) rate constants and the apparent dissociation equilibrium constant (KD) were calculated with the Biacore analysis software (Biacore Evaluation software Version 3.2, Cytiva) using one-to-one Langmuir binding model and quality of the fits was monitored based on Chi2 and U-value, which are measures for the quality of the curve fitting. The binding level was calculated as the maximum stability binding achieved normalized to the theoretical Rmax. Cross-reactivity to cynomolgus monkey IL-4R was measured using the same setup as for the analysis of human IL-4R kinetics, with the difference that recombinant cynomolgus monkey IL-4R (ECD with His-tag, Acro Biosystems) protein was used as analyte instead of human IL-4R.

[10] = molecular target: T8, recombinant cynomolgus monkey IL-4R (ECD with His-tag, Acro Biosystems) (cynomolgus monkey, UniProt A0A2K5V556 26-232); assay: as above
T8 construct: bought; also called cynomolgus IL-4R
T8 sequence (A0A2K5V556 entry or part of it limits assumed): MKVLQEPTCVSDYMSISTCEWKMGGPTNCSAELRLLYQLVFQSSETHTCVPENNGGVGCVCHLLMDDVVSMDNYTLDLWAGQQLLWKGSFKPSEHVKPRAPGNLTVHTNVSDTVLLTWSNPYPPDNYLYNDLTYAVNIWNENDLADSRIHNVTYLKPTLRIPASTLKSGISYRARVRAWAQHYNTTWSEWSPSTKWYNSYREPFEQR
Procedure: as §5

human IL-31-His = molecular target: T2, human IL-31-His; assay: SPR, IL-31-His captured, scFv analyte (30 and 10 nM)
Procedure: Affinity of the two humanized scFvs to human and cynomolgus IL-31 was determined by SPR analysis on a T200 device (Biacore, GE Healthcare). Cynomolgus IL-31 was manufactured on demand by Sino Biological since it was not available commercially. Human and cynomolgus IL-31-His was captured via an anti-His tag antibody coupled to a carboxylmethylated dextran surface and the scFvs were injected as analyte. After each analyte injection cycle the sensor chip was regenerated and new antigen was captured. The scFvs were measured using a dose response multi-cycle kinetic assay in a high-throughput mode with two concentrations (30 and 10 nM) diluted in running buffer. Obtained sensorgrams were fitted using a 1:1 binding model.
Affinity of PRO1643 and of the optimized anti-IL-31 scFvs to human IL-31 was determined by SPR analysis on a T200 device (Biacore, GE Healthcare), as described above in section 2.2.2. The scFvs were measured using a dose response multi-cycle kinetic assay in a high-throughput mode with two concentrations (30 and 10 nM) diluted in running buffer. Obtained sensorgrams were fitted using a 1:1 binding model.

IC50 (single analysis), human IL-31-induced signaling, IL-31RA/OSMR dimerization assay [1]	IC50, IL-4-induced CD23 expression, memory B cells [2]	IC50, IL-4-induced CD23 expression, naive B cells [2]	IC50 (single analysis), human IL-4-induced signaling, stat-6 reporter gene assay [3]	EC50 [4]	EC50 [5]	IC50 (single analysis), human IL-13-induced signaling, stat-6 reporter gene assay [6]	Kd [7]	koff [7]	kon [7]	Kd [8]	koff [8]	kon [8]	Kd [9]	koff [9]	kon [9]	Kd [10]	koff [10]	kon [10]	Kd (human IL-31-His)	Binder	further results
230 pM	4340 pM	1480 pM	11.8 pM	830 pM	900 pM	29.5 pM	107 pM	2.36e-05 s⁻¹	220000 M⁻¹ s⁻¹	169 pM	< 1e-05 s⁻¹	59300 M⁻¹ s⁻¹	47.7 pM	1.95e-05 s⁻¹	409000 M⁻¹ s⁻¹	209 pM	2.42e-05 s⁻¹	116000 M⁻¹ s⁻¹		PRO2206 (bispecific antibody, human IgG4 S228P, kappa, IgG4 (S228P) Morrison-L, anti-IL-31 scFv on the C-terminus of the light chain; also called Morrison-L; MorrL) light: DIQMTQSPSSLSARVGDRVTITCQASEDIESYLAWYQQKPGKAPKLLIYRASTLAYGVPSRFSGSGSGRDFTLTISSLQPEDFATYYCLGSSYSTGSNIFGQGTKVEIKRTVAAPSVFIFPPSDEQLKSGTASVVCLLNNFYPREAKVQWKVDNALQSGNSQESVTEQDSKDSTYSLSSTLTLSKADYEKHKVYACEVTHQGLSSPVTKSFNRGECGGGGSGGGGSAFQLTQSPSSLSASVGDRVTITCQASQSIDSWLAWYQQKPGKPPKLLIYQASKLASGVPSRFSGSGSGTDYTLTISSLQPEDFATYYCQTYYGGGHIGWGFGTGTKVTVLGGGGGSGGGGSGGGGSGGGGSQSQLVESGGGRVQPGGSLRLSCAASGFSFSANYWICWVRQAPGKGLEWIVCIYIGSRADTYYAPWAKGRFTISKDNSKNTVYLQMNSLRAEDTATYFCARFSSGIYDLDRFFLWGQGTQVTVSS heavy: not shown	IC50, IL-4-induced CD23 expression, monocytes (blood donor 2) [2]: 110 pM
																			1220 pM	PRO1903 (scFv, V domains shown, anti-IL-31 scFv (VL D32E against sc03); Printed VL entry has no FR4; also called 50-09-D07-sc07) VH: QSQLVESGGGLVQPGGSLRLSCAASGFSFSANYWICWVRQAPGKGLEWIVCIYIGSRADTYYAPWAKGRFTISKDNSKNTVYLQMNSLRAEDTAVYFCARFSSGIYDLDRFFLWGQGTLVTVSS V domain: AFQLTQSPSSLSASVGDRVTITCQASQSIESWLAWYQQKPGKPPKLLIYQASKLASGVPSRFSGSGSGTDYTLTISSLQPEDFATYYCQTYYGGGHIGWGFGTGTKVTV	koff (human IL-31-His): 0.000638 s⁻¹; kon (human IL-31-His): 524000 M⁻¹ s⁻¹

More lines, now with the values behind:

Binder	IC50 (single analysis), human IL-31-induced signaling, IL-31RA/OSMR dimerization assay [1]	IC50, IL-4-induced CD23 expression, memory B cells [2]	IC50, IL-4-induced CD23 expression, naive B cells [2]	IC50 (single analysis), human IL-4-induced signaling, stat-6 reporter gene assay [3]	EC50 [4]	EC50 [5]	IC50 (single analysis), human IL-13-induced signaling, stat-6 reporter gene assay [6]	Kd [7]	koff [7]	kon [7]	Kd [8]	koff [8]	kon [8]	Kd [9]	koff [9]	kon [9]	Kd [10]	koff [10]	kon [10]	Kd (human IL-31-His)	further results
PRO2207 (bispecific antibody, human IgG4 S228P, kappa, IgG4 (S228P) Morrison-L; also called Morrison-L; MorrL) light: DIQMTQSPSSLSASVGDRVTITCQASEDIESYLAWYQQKPGKAPKLLIYRASTLAYGVPSRFSGSGSGTDFTLTISSLQPEDFATYYCLGSSYSTGSNIFGQGTKVEIKRTVAAPSVFIFPPSDEQLKSGTASVVCLLNNFYPREAKVQWKVDNALQSGNSQESVTEQDSKDSTYSLSSTLTLSKADYEKHKVYACEVTHQGLSSPVTKSFNRGECGGGGSGGGGSAFQLTQSPSSLSASVGDRVTITCQASQSIDSWLAWYQQKPGKPPKLLIYQASKLASGVPSRFSGSGSGTDYTLTISSLQPEDFATYYCQTYYGGGHIGWGFGTGTKVTVLGGGGGSGGGGSGGGGSGGGGSQSQLVESGGGRVQPGGSLRLSCAASGFSFSANYWICWVRQAPGKGLEWIVCIYIGSRADTYYAPWAKGRFTISKDNSKNTVYLQMNSLRAEDTATYFCARFSSGIYDLDRFFLWGQGTQVTVSS heavy: not shown	215 pM	1580 pM	1040 pM	9.4 pM	600 pM	650 pM	12.6 pM	152 pM	2.47e-05 s⁻¹	163000 M⁻¹ s⁻¹	164 pM	< 1e-05 s⁻¹	60900 M⁻¹ s⁻¹	189 pM	4.61e-05 s⁻¹	244000 M⁻¹ s⁻¹	11 pM	2.77e-05 s⁻¹	2.53e+06 M⁻¹ s⁻¹		IC50, IL-4-induced CD23 expression, monocytes (blood donor 3) [2]: ~54.5 pM
PRO1900 (scFv, V domains shown, anti-IL-31 scFv; VL entry ends with LCDR3 (no FR4); also called 50-09-D07-sc04) VH: QSQLVESGGGRVQPGGSLRLSCAASGFSFSANYWICWVRQAPGKGLEWIVCIYIGSRADTYYAPWAKGRFTISKDNSKNTVYLQMNSLRAEDTATYFCARFSSGIYDLDRFFLWGQGTQVTVSS V domain: AFQLTQSPSSLSASVGDRVTITCQASQSIDSWLAWYQQKPGKPPKLLIYQASKLASGVPSRFSGSGSGTDYTLTISSLQPEDFATYYCQTYYGGGHIGWGFGTGTKVTV																				907 pM	koff (human IL-31-His): 0.000599 s⁻¹; kon (human IL-31-His): 661000 M⁻¹ s⁻¹
